Measured values reported in patent publication US20240400717A1, “Antibody Binding to CHI3L1 for Treating Cancer” (National Cheng Kung University, priority 2021, published 2024).

Key:
[1] = Mouse muscle fiber area analysis (cachexia) in KPPC-luc orthotopic model; type: in vivo, C57BL/6J mice
Description: Since pancreatic patients often suffer from cachexia, the cancer-related muscle loss disorder (Henderson et al. 2018; Yoo et al. 2021), we further performed the mouse muscle fiber area analysis in IgG and R4-4 (10 mg/kg) groups. […] The value of the cross-sectional cutoff area was set to 1800, representing severe muscle loss (FIG. 15D).

KPPC-luc cells [2] = experiment: KPPC-luc orthotopic C57BL/6J mice model, mono-treatment; type: in vivo
Description: (§1) Thus, we established orthotopic animal models by directly injecting murine pancreatic cancer KPPC-luc cells (5×10^6) into pancreas of immunocompetent (C57BL/6J) mice. All mice were divided into two groups and treated with IgG isotype antibody as control, or mAb clone R4-4 (5 mg/kg) by intravenous (i.v.) injection via tail-vein at indicated time points (Day 3, Day 7, Day 10, and Day 14). Mice were sacrificed to verify tumor information on day 28. […] Data was presented as means±S.D. P values refer to two-tailed Student's t test. * P<0.05, ** P<0.01.

mouse rCHI3L1 = mouse rCHI3L1 (Mus musculus, UniProt Q61362); experiment: ELISA binding to mouse rCHI3L1; settings: FIG. 10B
Description: FIGS. 10A to 10B show binding curves of ELISA assay indicated the binding of R4-4 (circle), R4-54 (square), 293R3-2 (triangle), and 293R3-4 (reverse triangle) to (FIG. 10A) human rCHI3L1 and (FIG. 10B) mouse rCHI3L1.
as §1

KPPC-luc cells [3] = experiment: KPPC-luc orthotopic C57BL/6J mice model, mAb and chemotherapy combination; settings: for tumor weight: day 29
mouse CHI3L1 antigen = mouse CHI3L1 antigen (Mus musculus, UniProt Q61362); experiment: Direct ELISA of phage clones, cross-reaction with mouse CHI3L1; type: binding; settings: FIG. 1C
MiaPaCa-2 cells [4] = experiment: MiaPaCa-2 subcutaneous xenograft NOD-SCID mice, efficacy and toxicity; type: in vivo; settings: for histology of liver, lung and kidney / mice body weight / serum level of GOT, GPT, BUN, albumin and creatinine: 5 mg/kg i.v.; for growth of MiaPaCa-2 subcutaneous xenografts: 5 mg/kg i.v. day 7, 14, 21, sacrificed day 28; for mice body weight / serum level of GOT, GPT, BUN, albumin and creatinine: vs IgG control
Description: Next, we examined whether our mAb clones R4-4 and R4-54 exert any toxicity in vivo. We performed a xenograft model by subcutaneously implanting MiaPaCa-2 cells to NOD-SCID mice. The mice were i.v. injected with IgG isotype, mAb clone R4-4, or clone R4-54 (5 mg/kg) once a week starting from day 7 to day 21, that is, day 7, day 14, and day 21, and mice were sacrificed on day 28. […] To evaluate the potential safety of our developed mAbs, we examined body weight, serum biochemical markers and histology sections of three major organs of tumor-bearing mice. […] Scale bar 100 μm. P values were determined by one-way ANOVA. * P<0.05, ** P<0.01, *** P<0.001, **** P<0.0001.

MiaPaCa-2 cells [5] = experiment: MiaPaCa-2-bearing hHSC-HIS mouse model; type: in vivo, hHSC reconstituted ASID mice
Source text: (§2) We used the advanced severe immunodeficiency (ASID) mice those were implanted with human […] hematopoietic stem cells (HSCs). MiaPaCa-2 and H460 cells were then subcutaneously injected into hHSC reconstituted ASID mice to evaluate the anti-tumor effects of CHI3L1 mAb clone R4-54 on lung and pancreatic cell lines in vivo. […] Tumor and peripheral blood were also harvest for further immune cell population examinations. […] In addition, peripheral blood samples of two tumor-bearing hHSC-HIS mice models were collected for analysis of immune cell populations. […] Data was presented as means±S.D. P values refer to two-tailed Student's t test. * P<0.05, ** P<0.01, *** P<0.001.

H460 cells = experiment: H460-bearing hHSC-HIS mouse model; type: in vivo, hHSC reconstituted ASID mice
Source text: as §2

[6] = immunohistochemical staining, CD86 and CD163

Chain of mouse rCHI3L1 (Q61362 30-389): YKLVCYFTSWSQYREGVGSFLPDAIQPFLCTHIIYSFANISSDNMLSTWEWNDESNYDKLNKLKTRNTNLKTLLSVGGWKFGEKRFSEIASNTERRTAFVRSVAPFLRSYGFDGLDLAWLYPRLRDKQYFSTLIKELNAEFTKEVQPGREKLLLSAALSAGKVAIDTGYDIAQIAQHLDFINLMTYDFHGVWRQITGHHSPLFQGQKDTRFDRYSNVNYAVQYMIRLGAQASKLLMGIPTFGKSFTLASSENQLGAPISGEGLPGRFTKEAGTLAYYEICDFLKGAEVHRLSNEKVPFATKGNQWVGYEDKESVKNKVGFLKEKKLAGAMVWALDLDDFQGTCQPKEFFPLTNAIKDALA
Chain of mouse CHI3L1 antigen (Q61362 30-389): as above

B1: R4-4: fully human anti-CHI3L1 IgG1 mAb, Table 1 No. 9; heavy chain SEQ ID NO: 9, light chain SEQ ID NO: 10 (antibody, listed as Homo sapiens)
VH: EVQLLESGGGLLQPGGSLRLSCAASGLTFRNYAMTWVRQAPGKGLEWVSTISGNGDETFYADSVKGHFTISRDNSKDTVYLQMNSLRAEDTAVYYCAKGGHYSFFDSWGQGSPVTVSS
light: NFMLTQPHSVSESPGKTVTISCTRSSGSIASNYVQWYQQRPGSSPTTVIYEDNQRPSGVPDRFSGSIDSSSNSASLTISGLKTEDEADYYCQSYDSSNYVFGTGTKVTVLGQPKANPTVTLFPPSSEELQANKATLVCLISDFYPGAVTVAWKADGSPVKAGVETTKPSKQSNNKYAASSYLSLTPEQWKSHRSYSCQVTHEGSTVEKTVAPAECS
With B1 as the molecule, how does the muscle fiber area ([1]; R4-4 10 mg/kg compared to IgG) read?
The muscle fiber area was “larger muscle fiber area”.

What about the “muscle fibers below the cutoff value” ([1]; R4-4 10 mg/kg, cross-sectional cutoff area 1800) of the same molecule?
Its value is 30.4%.

And the tumor weight (KPPC-luc cells [2]; 5 mg/kg i.v. Day 3, 7, 10, 14, day 28, vs IgG)?
The tumor weight was “significant reduction of tumor weight”.

What about the body weight (KPPC-luc cells [2]; 5 mg/kg i.v., vs IgG) of the same molecule?
The body weight was “without apparently body weight change”.

And the M1/M2 ratio (KPPC-luc cells [2]; flow cytometry, 5 mg/kg i.v.)?
Its M1/M2 ratio is “increased the M1/M2 ratio”.

What about the “tumor infiltrating M2-like TAMs (CD206+)” value (KPPC-luc cells [2]; flow cytometry, 5 mg/kg i.v.) of the same molecule?
Its value is “decreased”.

And the “tumor infiltrating Treg (CD45+, Foxp3+) populations” value (KPPC-luc cells [2]; flow cytometry, 5 mg/kg i.v.)?
Its value is “decreased”.

What about the “cross-reaction with murine CHI3L1” value (mouse rCHI3L1) of the same molecule?
The value was “the only one that could cross-react with murine CHI3L1”.

What about the tumor weight (KPPC-luc cells [3]; GEM 25 mg/kg, R4-4 10 mg/kg, Abraxane 2.5 mg/kg, i.p. day 14, 20, 25) of the same molecule?
The tumor weight was 2.61 g.

And the tumor weight (KPPC-luc cells [3]; R4-4 15 mg/kg i.p. day 14, 20, 25)?
Its tumor weight is 1.74.

What about the “Treg (CD4+, CD25+, Foxp3+)” value (KPPC-luc cells [3]; R4-4 15 mg/kg, flow cytometry) of the same molecule?
Its value is “significant decrease of Treg”.

What about the “angiogenesis level indicated by CD31” value (KPPC-luc cells [3]; all treated groups (R4-4 10 or 15 mg/kg)) of the same molecule?
Its value is “largely reduced”.

What about the “tumor-infiltrating M1-like TAMs (CD86+, CD11b+) and M1/M2 ratio” value (KPPC-luc cells [3]; flow cytometry) of the same molecule?
The value was “increased M1-like TAMs”.

And the “tumor-infiltrating M2-like TAMs (CD206+, CD11b+)” value (KPPC-luc cells [3]; flow cytometry)?
Its value is “decreased M2-like TAMs”.

And the “recognition of mouse CHI3L1 by phage clones” value (mouse CHI3L1 antigen)?
Its value is “cross-react with mouse CHI3L1”.

And the “histology of liver, lung and kidney” value (MiaPaCa-2 cells [4])?
The value was “no significant adverse effects”.

And the “growth of MiaPaCa-2 subcutaneous xenografts” value (MiaPaCa-2 cells [4])?
The value was “significantly delayed the growth”.

And the mice body weight (MiaPaCa-2 cells [4])?
The mice body weight was “no significant change in mice body weight”.

And the “serum level of GOT, GPT, BUN, albumin and creatinine” value (MiaPaCa-2 cells [4])?
Its value is “No obvious difference”.

B2: R4-54: fully human anti-CHI3L1 IgG1 mAb, Table 1 No. 34; heavy chain SEQ ID NO: 33, light chain SEQ ID NO: 34 (antibody, listed as Homo sapiens)
VH: QVQLVESGGGVVQPGRSLRLSCAASGFTFSSYGMHWVRQAPGKGLEWVAVISYDGSDKDYADSVKGRFTISRDNSKNTLFLQMNSLRAEDTAVYYCARDDYDSTYYFDNWGQGTTVTVSS
light: SYELTQPPSVSVSPGQTASITCSGDILADQYASWYQQKPGQSPVLVIYHDTKRPSGVPERFSGSTSGNTATLTISGTQAMDEAAYYCQAWDINTAWVFGGGTQLTVLGQPKAAPSVTLFPPSSEELQANKATLVCLISDFYPGAVTVAWKADSSPVKAGVETTTPSKQSNNKYAASSYLSLTPEQWKSHRSYSCQVTHEGSTVEKTVAPTECS
For B2, which “growth of subcutaneous xenografts” value (MiaPaCa-2 cells [5]; 5 mg/kg i.v. every five days from day 14, day 32) is on record?
Its value is “significantly delayed the growth”.

What about the “M2-like TAM and Treg populations in tumor-infiltrating immune cells” value (MiaPaCa-2 cells [5]; flow cytometry) of the same molecule?
The value was “M2-like TAM and Treg populations were decreased”.

What about the “percentages of M1 macrophages and CD8+ T cells in tumor-infiltrating immune cells” value (MiaPaCa-2 cells [5]; flow cytometry) of the same molecule?
The value was “increased the percentages of M1 macrophages and CD8+ T cells”.

And the “intratumoral M1 to M2 ratio and CD8 T cells” value (MiaPaCa-2 cells [5]; [6])?
Its value is “M1 to M2 ratio and CD8 T cells were both increased”.

And the “peripheral blood CD8+ T cells and Tregs” value (MiaPaCa-2 cells [5]; peripheral blood)?
Its value is “increased CD8+ T cells and decreased Tregs”.

What about the “growth of subcutaneous xenografts” value (H460 cells; 5 mg/kg i.v. every five days from day 6, day 27) of the same molecule?
The value was “significantly delayed the growth”.

And the “M2-like TAM and Treg populations in tumor-infiltrating immune cells” value (H460 cells; flow cytometry)?
Its value is “M2-like TAM and Treg populations were decreased”.

And the “percentages of M1 macrophages and CD8+ T cells in tumor-infiltrating immune cells” value (H460 cells; flow cytometry)?
The value was “increased the percentages of M1 macrophages and CD8+ T cells”.

And the “intratumoral M1 to M2 ratio and CD8 T cells” value (H460 cells; [6])?
Its value is “M1 to M2 ratio and CD8 T cells were both increased”.

What about the “peripheral blood CD8+ T cells and Tregs” value (H460 cells; peripheral blood) of the same molecule?
The value was “increased CD8+ T cells and decreased Tregs”.

What about the “histology of liver, lung and kidney” value (MiaPaCa-2 cells [4]) of the same molecule?
The value was “no significant adverse effects”.

What about the “growth of MiaPaCa-2 subcutaneous xenografts” value (MiaPaCa-2 cells [4]) of the same molecule?
Its value is “significantly delayed the growth”.

And the mice body weight (MiaPaCa-2 cells [4])?
Its mice body weight is “no significant change in mice body weight”.

And the “serum level of GOT, GPT, BUN, albumin and creatinine” value (MiaPaCa-2 cells [4])?
Its value is “No obvious difference”.
